In paper PMC4957108, “Impact of structural polymorphism for the Helicobacter pylori CagA oncoprotein on binding to polarity-regulating kinase PAR1b” (Scientific Reports, 2016):

How the values were obtained:
Settings in all cases: both partners purified
[1] = biological target: GST-CagA-4CM^W (Helicobacter pylori strain NCTC11637); test: pull-down; quantitative GST pull-down: GST-CagA on beads in a range of concentrations, fixed low concentration of PAR1b (39–364)-FLAG, GST-binding buffer with 0.01% Triton-X, 20 min at 4 °C, unbound PAR1b in the supernatant quantified, binding to GST control subtracted; apparent KD
[2] = biological target: GST-CagA-2CM^W (Helicobacter pylori strain 26695, UniProt P55980 1-1186); test: as above
[3] = biological target: T1, CagA-2CM^W (Helicobacter pylori strain 26695, UniProt P55980 1-1186); test: SEC; Superdex 200 10/300 GL, HBS-P running buffer, 4 °C, 0.5 ml/min; CagA constructs alone or mixed with PAR1b (39–364) at a molar ratio of 1:1 or 1:2; fractions on SDS-PAGE, CBB bands quantified
T1 construct: also called canonical Western ABC type CagA
T1 sequence (looked up): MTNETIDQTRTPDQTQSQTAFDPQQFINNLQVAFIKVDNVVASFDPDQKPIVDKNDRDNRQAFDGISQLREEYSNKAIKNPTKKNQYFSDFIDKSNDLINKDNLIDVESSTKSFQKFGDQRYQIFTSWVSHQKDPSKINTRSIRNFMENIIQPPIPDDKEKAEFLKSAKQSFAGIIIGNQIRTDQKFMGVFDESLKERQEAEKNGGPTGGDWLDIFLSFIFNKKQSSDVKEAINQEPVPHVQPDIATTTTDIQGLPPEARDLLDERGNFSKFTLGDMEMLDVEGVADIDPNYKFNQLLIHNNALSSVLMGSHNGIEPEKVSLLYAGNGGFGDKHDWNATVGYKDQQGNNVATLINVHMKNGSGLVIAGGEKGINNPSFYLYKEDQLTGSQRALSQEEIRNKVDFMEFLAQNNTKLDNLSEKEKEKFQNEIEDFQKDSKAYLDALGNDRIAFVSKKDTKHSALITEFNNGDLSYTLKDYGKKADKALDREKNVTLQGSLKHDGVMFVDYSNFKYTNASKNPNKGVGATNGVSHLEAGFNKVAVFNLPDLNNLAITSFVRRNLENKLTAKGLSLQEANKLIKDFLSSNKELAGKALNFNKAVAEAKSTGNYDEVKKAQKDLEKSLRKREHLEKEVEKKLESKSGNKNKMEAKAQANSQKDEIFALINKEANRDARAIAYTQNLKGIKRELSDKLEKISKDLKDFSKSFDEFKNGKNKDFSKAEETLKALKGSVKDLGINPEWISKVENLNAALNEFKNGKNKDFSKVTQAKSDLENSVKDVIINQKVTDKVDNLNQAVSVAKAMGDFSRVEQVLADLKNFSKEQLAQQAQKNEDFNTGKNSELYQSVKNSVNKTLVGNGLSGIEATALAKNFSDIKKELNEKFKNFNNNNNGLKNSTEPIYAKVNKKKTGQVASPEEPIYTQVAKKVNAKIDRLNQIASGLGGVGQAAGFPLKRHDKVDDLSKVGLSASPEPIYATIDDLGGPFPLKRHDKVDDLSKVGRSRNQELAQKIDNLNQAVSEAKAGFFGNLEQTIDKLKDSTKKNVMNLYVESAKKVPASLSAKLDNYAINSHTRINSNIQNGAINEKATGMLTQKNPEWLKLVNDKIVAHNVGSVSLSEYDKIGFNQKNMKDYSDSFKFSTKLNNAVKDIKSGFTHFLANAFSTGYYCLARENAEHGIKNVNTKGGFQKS

B1: PAR1b (39–364)-FLAG (domain or fragment)
chain: not shown
Kd [1]: 2.43 nM

B2: PAR1b (39–364)-FLAG (domain or fragment)
chain: not shown
modifications: C-terminal FLAG-6xHis tag left out
Kd [2]: 26.6 nM

B3: PAR1b (39–364) (domain or fragment)
chain: not shown
modifications: C-terminal 6xHis tag left out
stoichiometry N [3]: 2 PAR1b per CagA
